In article doi:10.1101/743492:

Molecular target: mCherry-labeled WASp (Drosophila melanogaster)
Experiment: FRET or BRET

eGFP-labeled Cdc42 (from UniProt P40793 1-191) (natural protein)
FRET probability: 0.24
